# Measured values as given in patent publication US20070148180A1, “Peptide-immunoglobulin-conjugate” (priority 2005, published 2007).
# pKd: −log10 of the molar value. No end group written: not given here.
# Key:
# [1] = test system: pseudotyped NL-Bal viruses; details: pseudotyped NL-Bal virus, single-cycle, JC53-BL cells
# live NL-Bal viruses = format: cell-based, HIV-1; details: live NL-Bal virus, JC53-BL cells, luciferase activity
# [2] = target: biotinylated HR1 peptide Biotin-T-2324 (HIV-1 gp41 HR1) (Human immunodeficiency virus type 1 group M subtype B, UniProt P04582, G556A); experiment: Binding affinity of HR2 containing polypeptides to HR1 by Surface Plasmon Resonance (BIAcore 3000); details: SPR, 25° C., immobilized HR1 peptide Biotin-T-2324, 1:1 Langmuir model
# Description for HIV-1 JR-CSF virus: Human PBMC were isolated from buffy-coats (obtained from the Stanford Blood Center) by a Ficoll-Paque (Amersham, Piscataway, N.J., USA) density gradient centrifugation according to manufacturer's protocol. Briefly, blood was transferred from the buffy coats in 50 ml conical tubes and diluted with sterile Dulbecco's phosphate buffered saline (Invitrogen/Gibco) to a final volume of 50 ml. Twenty-five ml of the diluted blood was transferred to two 50 ml conical tubes, carefully underlayerd with 12.5 ml of Ficoll-Paque Plus (Amersham Biosciences) and centrifuged at room temperature for 20 min. at 450×g without braking. The white cell layer was carefully transferred to a new 50 ml conical tube and washed twice with PBS. To remove remaining red blood cells, cells were incubated for 5 min. at room temperature with ACK lysis buffer (Biosource) and washed one more time with PBS. PBMC were counted and incubated at a concentration of 2-4×10^6 cells/ml in RPMI1640 containing 10% FCS (Invitrogen/Gibco), 1% penicillin/streptomycin, 2 mM L-glutamine, 1 mM sodium-pyruvate, and 2 μg/ml Phytohemagglutinin (Invitrogen) for 24 h at 37° C. […] Virus production was measured at the end of infection by using p24 ELISA (HIV-1 p24 ELISA #NEK050B) using the sigmoid dose-response model with one binding site in Microsoft Excel Fit (version 3.0.5 Build12; equation 205; Microsoft).
Molecule,Antiviral activity IC50 (HIV-1 JR-CSF virus) [µg/mL],"Antiviral activity IC50 ([1]; 3 day incubation, luciferase activity) [µg/mL]",Antiviral activity % Inhibition at 20 μg/mL [1] [%],Antiviral activity % Inhibition at 20 μg/mL (live NL-Bal viruses) [%],KA [2] [M⁻¹],pKd [2],ka [2] [M⁻¹ s⁻¹],kd [2] [s⁻¹]
CC[C@H](C)[C@H](NC(=O)[C@H](C)NC(=O)[C@H](CCCNC(=N)N)NC(=O)[C@H](CC(=O)O)NC(=O)[C@H](Cc1c[nH]c2ccccc12)NC(=O)[C@H](C)NC(=O)[C@H](CCC(=O)O)NC(=O)[C@H](Cc1c[nH]c2ccccc12)NC(=O)[C@@H](NC(=O)[C@@H](NC(C)=O)[C@@H](C)O)[C@@H](C)O)C(=O)N[C@@H](C)C(=O)N[C@@H](CCC(=O)O)C(=O)N[C@@H](Cc1ccc(O)cc1)C(=O)N[C@@H](C)C(=O)N[C@@H](C)C(=O)N[C@@H](CCCNC(=N)N)C(=O)N[C@H](C(=O)N[C@@H](CCC(=O)O)C(=O)N[C@@H](C)C(=O)N[C@@H](CC(C)C)C(=O)N[C@H](C(=O)N[C@@H](CCCNC(=N)N)C(=O)N[C@@H](C)C(=O)N[C@@H](C)C(=O)N[C@@H](CCC(N)=O)C(=O)N[C@@H](CCC(=O)O)C(=O)N[C@@H](CCC(N)=O)C(=O)N[C@@H](CCC(N)=O)C(=O)N[C@@H](CCC(=O)O)C(=O)N[C@@H](CCCCN)C(=O)N[C@@H](CC(N)=O)C(=O)N[C@@H](CCC(=O)O)C(=O)N[C@@H](C)C(=O)N[C@@H](C)C(=O)N[C@@H](CC(C)C)C(=O)N[C@@H](CCCNC(=N)N)C(=O)N[C@@H](CCC(=O)O)C(=O)N[C@@H](CC(C)C)C(N)=O)[C@@H](C)CC)[C@@H](C)CC [Compound T-2635],0.004,,,,,,,
enfuvirtide,,0.38,,,,,,
"4976/4818: anti-IGF-1R IgG1: light chain 4976 with T-651 N-terminal (including variable domain), wt heavy chain 4818 (QIWNNMTWMEWDREINNYTSLIHSLIEESQNQQEKNEQELLGGGGSGGGGSGGGGSGAS; also: fused N-terminally to light chain of anti-IGF-1R IgG1)",,,17,38,2.63e+10,10.42,923000,3.51e-05
"4970/4802: anti-IGF-1R IgG1: wt light chain 4802, heavy chain 4970 with T-651 conjugated C-terminally via linker SEQ ID NO: 11 (GGGGSGGGGSGGGGSGGNMTWMEWDREINNYTSLIHSLIEESQNQQEKNEQELL; also: fused C-terminally to heavy chain of anti-IGF-1R IgG1)",,,15,20,9.11e+10,10.96,1.01e+06,1.11e-05
"4972/4802: anti-IGF-1R IgG1: wt light chain 4802, heavy chain 4972 with T-2635 conjugated C-terminally via linker SEQ ID NO: 11 (GGGGSGGGGSGGGGSGGTTWEAWDRAIAEYAARIEALIRAAQEQQEKNEAALREL; also: fused C-terminally to heavy chain of anti-IGF-1R IgG1)",,,27,43,1.01e+10,10.01,786000,7.76e-05
